Data reported in US20220380457A1.

Target: FcγRIIIA (CD16α) on human NK cells in whole blood (human) (UniProt P08637)
Test: cell-based or functional assay

Chain of UniProt P08637 (P08637 17-254): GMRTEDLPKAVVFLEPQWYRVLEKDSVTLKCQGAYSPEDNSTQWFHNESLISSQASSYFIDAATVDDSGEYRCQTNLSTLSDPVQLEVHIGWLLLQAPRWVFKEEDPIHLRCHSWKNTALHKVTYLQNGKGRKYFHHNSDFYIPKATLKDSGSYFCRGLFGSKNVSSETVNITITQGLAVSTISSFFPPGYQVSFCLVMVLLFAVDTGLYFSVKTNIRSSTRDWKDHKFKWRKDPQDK

## WT rituximab (soluble antibody, wild type hinge)
  NK cell activation in whole human blood, CD16/CD62L staining, FIG. 11A control row, left lower quadrant (downregulation of CD16α): 45.2
  NK cell activation in whole human blood, CD107α/CD69 staining, FIG. 11B control row, right upper quadrant (upregulation of CD107α): 35.3
  NK cell activation with IdeZ, FIG. 11A IdeZ row, left lower quadrant: 8.8
  NK cell activation with IdeZ, FIG. 11B IdeZ row, right upper quadrant: 1.9
  depletion of CD19(+) B cells with IdeZ against WT rituximab in control blood: 63%
  residual CD19(+) B cells in blood with IdeZ, FIG. 11C IdeZ row, right lower quadrant: 9.8
